Measurements reported in patent US20200317768A1 (published 2020).
Numbering of substitutions follows the chain as printed. In names and notes the source's numbering stands.

T1: human FcγRIIaH extracellular domain, C-terminal His-tag (human, UniProt P12318 34-217)
T1 construct: also called human FcγRIIa (type H); FcgRIIaH; not shown: His-tag added to C-terminus
T1 sequence: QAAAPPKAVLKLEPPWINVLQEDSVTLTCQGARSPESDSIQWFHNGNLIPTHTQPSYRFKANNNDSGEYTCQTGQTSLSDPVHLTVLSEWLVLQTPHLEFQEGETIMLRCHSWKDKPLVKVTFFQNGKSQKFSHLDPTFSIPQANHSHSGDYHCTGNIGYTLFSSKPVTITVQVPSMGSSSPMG

T2: human FcγRIIaR extracellular domain, C-terminal His-tag (human, UniProt P12318 34-217)
T2 construct: also called human FcγRIIa (type R); FcgRIIaR; not shown: His-tag added to C-terminus
T2 chain: T1 sequence with H134R

T3: cynomolgus monkey FcγRIIa3 extracellular domain, C-terminal His-tag (cynomolgus monkey)
T3 construct: also called cyno FcγRIIa3; cynoFcgRIIa3; not shown: His-tag added to C-terminus
T3 chain: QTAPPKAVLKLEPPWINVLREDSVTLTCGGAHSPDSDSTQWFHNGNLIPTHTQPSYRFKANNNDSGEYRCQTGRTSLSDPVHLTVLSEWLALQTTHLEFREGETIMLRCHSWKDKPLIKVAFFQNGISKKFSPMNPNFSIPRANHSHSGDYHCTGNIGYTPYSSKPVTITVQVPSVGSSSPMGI

T4: human FcγRIIb extracellular domain, C-terminal His-tag (human, UniProt P31994 43-217)
T4 construct: also called humanFcgRIIb; not shown: His-tag added to C-terminus
T4 sequence: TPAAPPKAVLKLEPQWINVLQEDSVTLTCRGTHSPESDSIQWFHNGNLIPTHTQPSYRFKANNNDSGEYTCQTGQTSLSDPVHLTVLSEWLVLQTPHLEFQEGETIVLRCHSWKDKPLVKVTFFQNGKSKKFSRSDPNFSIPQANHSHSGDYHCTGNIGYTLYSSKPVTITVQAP

T5: cynomolgus monkey FcγRIIa2 extracellular domain, C-terminal His-tag (cynomolgus monkey)
T5 construct: also called cyno FcγRIIa2; cynoFcgRIIa2; not shown: His-tag added to C-terminus
T5 chain: T3 chain with I127K, K130N, P133H, R142Q

T6: cynomolgus monkey FcγRIIa1 extracellular domain, C-terminal His-tag (cynomolgus monkey)
T6 construct: also called cyno FcγRIIa1; cynoFcgRIIa1; not shown: His-tag added to C-terminus
T6 chain: T3 chain with T95P, A121T, S128A, P133H, N135D

T7: cynomolgus monkey FcγRIIb extracellular domain, C-terminal His-tag (cynomolgus monkey)
T7 construct: also called cyno FcγRIIb; cynoFcγRIIb; not shown: His-tag added to C-terminus
T7 chain: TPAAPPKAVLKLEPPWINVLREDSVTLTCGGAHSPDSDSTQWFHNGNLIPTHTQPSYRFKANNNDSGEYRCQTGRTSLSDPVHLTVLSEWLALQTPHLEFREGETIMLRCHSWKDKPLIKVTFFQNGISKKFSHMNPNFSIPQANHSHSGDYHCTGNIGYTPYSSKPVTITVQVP

B1: M103205H795-SG1012 / M103202L889-SK1 (antibody, human IgG1, kappa)
heavy: QVTLKESGPVLVKPTETLTLTCTVSGIDLSHDDISWVRQAPGKGLEWVGIISYAGSTYYASWAKGRLTISKDTSKNQVVLTMTNMDPVDTATYYCARGVPAYSHGGDLWGQGTLVTVSSASTKGPSVFPLAPSSKSTSGGTAALGCLVKDYFPEPVTVSWNSGALTSGVHTFPAVLQSSGLYSLSSVVTVPSSSLGTQTYICNVNHKPSNTKVDKKVEPKSCDKTHTCPPCPAPELLNGPSVFLFPPKPKDTLMISRTPEVTCVVVDVSEEDPEVKFNWYVDGVEVHNAKTKPREEQYNSTYRVVSVLTVLHQDWLNGKEYKCKVSNKALPKPIEKTISKAKGQPREPQVYTLPPSREEMTKNQVSLTCLVKGFYPSDIAVEWESNGQPENNYKTTPMVLDSDGSFFLYSKLTVDKSRWQQGNVFSCSVMHEALHAHYTQKSLSLSP
light: DIVMTQSPATLSLSPGERATLSCTSSQSVYHANWLSWFQQKPGQPPKLLIYWASTLAYGVPSRFSGSGSGTDFTLTISSLQPEDAATYYCAGGYGGGRYAFGQGTKVEIKRTVAAPSVFIFPPSDEQLKSGTASVVCLLNNFYPREAKVQWKVDNALQSGNSQESVTEQDSKDSTYSLSSTLTLSKADYEKHKVYACEVTHQGLSSPVTKSFNRGEC
notes: the text says N434A was introduced into MY101 (which also has A330K); also called MS1032LO06-SG1012
B2: M103205H795-SG1016 / M103202L889-SK1 (antibody, human IgG1, kappa)
heavy: B1 heavy with Q313R, D401R
light: B1 light
notes: the text says Q311R/D399K; also called MS1032LO06-SG1016
B3: M103205H795-SG1031 / M103202L889-SK1 (antibody, human IgG1, kappa)
heavy: B1 heavy with E270D, Q313R, M398P, D415K
light: B1 light
notes: CH with G236N/H268D/Q311R/A330K/D413K/N434A against SG1 (EU numbering); also called MS1032LO06-SG1031
B4: M103205H795-SG1029 / M103202L889-SK1 (antibody, human IgG1, kappa)
heavy: B1 heavy with E270D, Q297L, Q313R, M398P, D415K
light: B1 light
notes: CH with G236N/H268D/Q295L/Q311R/A330K/D413K/N434A against SG1 (EU numbering); also called MS1032LO06-SG1029

target: T1, human FcγRIIaH extracellular domain, …; assay: SPR (BIACORE); KD of parent SG1 / KD of variant;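 note: relative to parent M103205H795-SG1 carrying the SG1 human heavy chain constant region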
Experimental: (§1) The kinetic analysis of interactions between these antibodies and FcγR was carried out using BIACORE® T200 or BIACORE® 4000 (GE Healthcare). HBS-EP+ (GE Healthcare) was used as the running buffer, and the measurement temperature was set to 25° C. A chip produced by immobilizing Protein A. Protein A/G or mouse anti-human IgG kappa light chain (BD Biosciences) onto a Series S Sensor Chip CM4 or CM5 (GE Healthcare) by the amine-coupling method was used. […] After the measurement, the antibody captured on the chip was washed off by allowing reaction with 10 mM glycine-HCl, pH1.5 and 25 mM NaOH so that the chip was regenerated and used repeatedly. The sensorgrams obtained as measurement results were analyzed by the 1:1 Langmuir binding model using the BIACORE® Evaluation Software to calculate the binding rate constant ka (L/mol/s) and dissociation rate constant kd (l/s), and the dissociation constant KD (mol/L) was calculated from these values. […] Regarding such interactions, KD values were calculated using the following 1:1 binding model described in BIACORE® T100 Software Handbook BR1006-48 Edition AE.

Row | KD fold (SG1 = 1) [fold] | Binder
1 | 1.8 | B1
2 | 1.5 | B2
3 | 0.7 | B3
4 | 1.1 | B4

Target: T2, human FcγRIIaR extracellular domain, …
Assay: SPR (BIACORE); KD of parent SG1 / KD of variant;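 note: relative to parent M103205H795-SG1 carrying the SG1 human heavy chain constant region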
Experimental: as §1

Row | KD fold (SG1 = 1) [fold] | Binder
5 | 1.4 | B1
6 | 1.2 | B2
7 | 1.3 | B3
8 | 0.8 | B4

target: T8, human FcγRIIIaV extracellular domain, C-terminal His-tag (human, UniProt P08637 17-208); assay: SPR (BIACORE); KD of parent SG1 / KD of variant;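 note: relative to parent M103205H795-SG1 carrying the SG1 human heavy chain constant region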
T8 construct: also called FcgRIIIaV; not shown: His-tag added to C-terminus
T8 sequence (P08637 17-208 F176V): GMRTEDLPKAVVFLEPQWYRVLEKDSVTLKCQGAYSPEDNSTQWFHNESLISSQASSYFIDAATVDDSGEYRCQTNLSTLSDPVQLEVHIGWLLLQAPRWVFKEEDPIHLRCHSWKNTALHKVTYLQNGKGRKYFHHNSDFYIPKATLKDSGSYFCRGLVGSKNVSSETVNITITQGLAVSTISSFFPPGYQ
Experimental: as §1

Row | KD fold (SG1 = 1) [fold] | Binder
9 | 0.11 | B1
10 | 0.06 | B2
11 | 0.04 | B3
12 | 0.03 | B4

Target: T3, cynomolgus monkey FcγRIIa3 …
Assay: SPR (BIACORE); KD of parent SG1 / KD of variant;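 note: relative to parent M103205H795-SG1 carrying the SG1 human heavy chain constant region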
Experimental: as §1

Row | KD fold (SG1 = 1) [fold] | Binder
13 | 3.8 | B1
14 | 3.9 | B2
15 | 3.1 | B3
16 | 2.8 | B4

target: T4, human FcγRIIb extracellular domain, …; assay: SPR (BIACORE); KD of parent SG1 / KD of variant
Experimental: as §1

Row | KD fold (SG1 = 1) [fold] | Binder
17 | 9.6 | B1
18 | 8.7 | B2
19 | 3.8 | B3
20 | 5.3 | B4

Target: T5, cynomolgus monkey FcγRIIa2 …
Assay: SPR (BIACORE); KD of parent SG1 / KD of variant
Experimental: as §1

Row | KD fold (SG1 = 1) [fold] | Binder
21 | 4.7 | B1
22 | 4.1 | B2
23 | 3.1 | B3
24 | 3.1 | B4

Target: T6, cynomolgus monkey FcγRIIa1 …
Assay: SPR (BIACORE); KD of parent SG1 / KD of variant
Experimental: as §1

Row | KD fold (SG1 = 1) [fold] | Binder
25 | 4.4 | B1
26 | 3.8 | B2
27 | 2.6 | B3
28 | 3.5 | B4

target: T9, cynomolgus monkey FcγRIIIaS extracellular domain, C-terminal His-tag (cynomolgus monkey, UniProt A3RFZ7 21-206 (rhesus entry)); assay: SPR (BIACORE); KD of parent SG1 / KD of variant
T9 construct: also called cyno FcγRIIIaS; cynoFcγRIIIaS; not shown: His-tag added to C-terminus
T9 sequence (A3RFZ7 21-206): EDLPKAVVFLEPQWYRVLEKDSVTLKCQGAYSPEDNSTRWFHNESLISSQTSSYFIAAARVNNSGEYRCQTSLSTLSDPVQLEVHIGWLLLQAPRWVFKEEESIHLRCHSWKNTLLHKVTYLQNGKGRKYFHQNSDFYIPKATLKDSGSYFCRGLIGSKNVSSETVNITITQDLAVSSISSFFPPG
Experimental: as §1

Row | KD fold (SG1 = 1) [fold] | Binder
29 | 0.13 | B1
30 | 0.12 | B2
31 | 0.06 | B3
32 | 0.05 | B4

Target: T7, cynomolgus monkey FcγRIIb extracellular …
Assay: SPR (BIACORE); KD of parent SG1 / KD of variant
Experimental: as §1

Row | KD fold (SG1 = 1) [fold] | Binder
33 | 7.2 | B1
34 | 6 | B2
35 | 3.9 | B3
36 | 4.9 | B4

target: T1, human FcγRIIaH extracellular domain, …; assay: SPR (BIACORE), antibody captured, FcγR analyte
Experimental: as §1

Row | Kd [µM] | Binder
37 | 0.5 | B1
38 | 0.5 | B2
39 | 1.8 | B3
40 | 0.79 | B4

Target: T2, human FcγRIIaR extracellular domain, …
Assay: SPR (BIACORE), antibody captured, FcγR analyte
Experimental: as §1

Row | Kd [µM] | Binder
41 | 0.75 | B1
42 | 0.82 | B2
43 | 0.8 | B3
44 | 1.3 | B4

target: T8, human FcγRIIIaV extracellular domain, …; assay: SPR (BIACORE), antibody captured, FcγR analyte
Experimental: as §1

Row | Kd [µM] | Binder
45 | 5.8 | B1
46 | 10 | B2
47 | 15 | B3
48 | 20 | B4

Target: T3, cynomolgus monkey FcγRIIa3 …
Assay: SPR (BIACORE), antibody captured, FcγR analyte
Experimental: as §1

Row | Kd [µM] | Binder
49 | 2.3 | B1
50 | 2.2 | B2
51 | 2.8 | B3
52 | 3.1 | B4

target: T4, human FcγRIIb extracellular domain, …; assay: SPR (BIACORE), antibody captured, FcγR analyte
Experimental: as §1

Row | Kd [µM] | Binder
53 | 0.49 | B1
54 | 0.55 | B2
55 | 1.2 | B3
56 | 0.9 | B4

Target: T5, cynomolgus monkey FcγRIIa2 …
Assay: SPR (BIACORE), antibody captured, FcγR analyte
Experimental: as §1

Row | Kd [µM] | Binder
57 | 1 | B1
58 | 1.1 | B2
59 | 1.5 | B3
60 | 1.5 | B4

Target: T6, cynomolgus monkey FcγRIIa1 …
Assay: SPR (BIACORE), antibody captured, FcγR analyte
Experimental: as §1

Row | Kd [µM] | Binder
61 | 1.1 | B1
62 | 1.3 | B2
63 | 1.8 | B3
64 | 1.4 | B4

target: T9, cynomolgus monkey FcγRIIIaS …; assay: SPR (BIACORE), antibody captured, FcγR analyte
Experimental: as §1

Row | Kd [µM] | Binder
65 | 2.1 | B1
66 | 2.4 | B2
67 | 4.4 | B3
68 | 5.3 | B4

Target: T7, cynomolgus monkey FcγRIIb extracellular …
Assay: SPR (BIACORE), antibody captured, FcγR analyte
Experimental: as §1

Row | Kd [µM] | Binder
69 | 0.27 | B1
70 | 0.33 | B2
71 | 0.5 | B3
72 | 0.4 | B4
